Two molecules from patent US20230009582A1 (MEMO THERAPEUTICS, published 2023) can be followed below.

For assay [1], the target named is extra-cellular domain of Siglec-9 fused to a C-terminal his-tag (Homo sapiens (Human), UniProt Q9Y336 18-348). In words: ELISA, coated his-tagged Siglec-9 extracellular domain, anti-human Fc gamma detection, Abs 450 nm. From the text:
(SEQ ID NO: 44) […] […] […] […] […] […] […]. For detection of bound IgG either polyclonal anti- rabbit IgG antibody (68D4; Biolegend, #406401), or anti-human Fey fragment (humanized 68D4 and mAbA; Jackson Immuno Research laboratories, #109-035-098) were used.

The target in assay [2] is T1, Siglec-5-Fc (R&D systems) (UniProt O15389 17-434, limits assumed).
T1 construct: Bought reagent; not shown: Fc part of the bought fusion; not described
T1 sequence (looked up): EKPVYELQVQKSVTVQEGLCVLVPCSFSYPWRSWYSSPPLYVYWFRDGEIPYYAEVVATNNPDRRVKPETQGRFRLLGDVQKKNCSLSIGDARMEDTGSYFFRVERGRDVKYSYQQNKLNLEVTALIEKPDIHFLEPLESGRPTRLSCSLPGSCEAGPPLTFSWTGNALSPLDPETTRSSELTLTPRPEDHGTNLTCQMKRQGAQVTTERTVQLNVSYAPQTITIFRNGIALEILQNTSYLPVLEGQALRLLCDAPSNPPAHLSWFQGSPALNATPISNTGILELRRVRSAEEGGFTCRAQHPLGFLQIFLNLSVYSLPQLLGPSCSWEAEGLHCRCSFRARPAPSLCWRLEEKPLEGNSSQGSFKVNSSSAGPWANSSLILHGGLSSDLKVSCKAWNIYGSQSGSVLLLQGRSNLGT
The experiment in a line: ELISA, coated Siglec-5-Fc 1 µg/ml, single antibody concentration, anti-human Fab detection, Abs 450 nm, n=3. The procedure: (§1) Specificity towards Siglec-5, Siglec-7, Siglec-8, Siglec-15 and Siglec-9 was assayed in enzyme-linked immunosorbent assay (ELISA) using 96 well half-area ELISA plates (Corning). Siglec-5-Fc (R&D systems), Siglec-7-Fc (in-house production, Siglec-7-Fc protein used had the following amino acid sequence:
(§2) (SEQ ID NO: 59)) […] […] […] […] […] […] […] […] […] […] […] […], Siglec-8-Fc (R&D systems), Siglec-15- Fc (R&D systems) and Siglec-9-Fc (in-house production, SEQ ID NO: 11) were coated at 1 μg/ml in 50 mM carbonate-bicarbonate buffer pH 9.6 for 15-20 hours at 4° C.
(§3) Antigens were washed away (Tecan Hydrospeed) and plates were blocked with 5% skimmed milk in phosphate-buffered saline (PBS). After washing the plates, antibodies were added at 5 μg/ml (33 nM) in 0.5% milk PBS in triplicates. Plates with antibodies were incubated for 1 hour at room temperature. Plates were washed and bound antibodies were detected by horseradish peroxidase (HRP)-labeled polyclonal anti-rabbit IgG antibody (Biolegend) or anti-human Fab fragment for mAbA (Sigma Aldrich). 3,3′,5,5′-Tetramethylbenzidine (TMB; Sigma Aldrich) development was stopped by addition of sulfuric acid and absorbance was detected at 450 nm (Tecan, CM […] MONO 200).

In assay [3] the target is T2, Siglec-15-Fc (R&D systems) (UniProt Q6ZMC9 20-263, limits assumed).
T2 construct: Bought reagent; not shown: Fc part of the bought fusion; not described
T2 sequence (looked up): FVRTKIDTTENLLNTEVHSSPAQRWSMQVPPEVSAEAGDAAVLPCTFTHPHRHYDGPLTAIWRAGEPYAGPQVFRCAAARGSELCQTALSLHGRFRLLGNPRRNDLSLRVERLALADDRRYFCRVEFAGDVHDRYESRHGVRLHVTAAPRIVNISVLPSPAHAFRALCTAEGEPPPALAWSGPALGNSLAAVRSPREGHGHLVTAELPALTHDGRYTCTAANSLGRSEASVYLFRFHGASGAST
In words: ELISA, coated Siglec-15-Fc 1 µg/ml, single antibody concentration, anti-human Fab detection, Abs 450 nm, n=3. How it is done: as §1, §2, §3

The target of assay [4] is T3, Siglec-9 expressed on cells (human, UniProt Q9Y336 18-463).
T3 construct: also called monocyte-expressed Siglec-9
T3 sequence (Q9Y336 18-463 limits assumed): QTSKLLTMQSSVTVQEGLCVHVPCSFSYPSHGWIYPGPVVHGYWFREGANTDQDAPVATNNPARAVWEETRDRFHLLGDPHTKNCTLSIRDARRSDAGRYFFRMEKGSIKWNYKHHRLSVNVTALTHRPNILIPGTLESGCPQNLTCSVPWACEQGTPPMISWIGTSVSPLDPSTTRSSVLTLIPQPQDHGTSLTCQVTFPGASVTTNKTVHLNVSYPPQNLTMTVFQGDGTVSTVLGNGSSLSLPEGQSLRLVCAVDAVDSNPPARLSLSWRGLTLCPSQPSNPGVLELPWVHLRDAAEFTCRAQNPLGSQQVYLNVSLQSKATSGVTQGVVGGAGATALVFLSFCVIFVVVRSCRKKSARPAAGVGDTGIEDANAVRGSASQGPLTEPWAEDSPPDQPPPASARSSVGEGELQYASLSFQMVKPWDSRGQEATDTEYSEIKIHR
In words: flow cytometry on human CD14+ monocytes in PBMC. How it is done: Human ex vivo PBMC were stained with fluorescence-labeled (allophycocyanin, APC) antibody to the monocyte marker CD14 (Biolegend) in assay buffer (0.5% (v/v) heat-inactivated fetal bovine serum (Gibco), 2 mM EDTA in phosphate-buffered saline). Subsequently, cells were incubated with antibodies under evaluation at various concentrations (67 nM-0.38 pM). After a washing step cells were incubated with fluorescence-labeled (Brilliant Violet 421™) secondary antibody against human IgG (mAbA) or rabbit IgG (all other monoclonal antibodies under evaluation; both secondary antibodies from Biolegend).
Binding of Siglec-9-specific antibodies to monocytes (CD14-positive life cells) was analysed with a CytoFLEX flow cytometer (Beckham Coulter's). The mean fluorescence intensity of the secondary antibody staining in the CD14-positive population at each dilution was determined using Flow Jo software (BD). Datapoints generated by this analysis were fitted and EC50 values were determined by three-parameter analysis in GraphPad Prism (GraphPad Software)

The target in assay [5] is Siglec-9 protein (construct not stated; antigen of Examples 3 and 4) (human, UniProt Q9Y336 18-348, limits assumed). In words: ELISA, coated Siglec-9 1 µg/ml, antibody titrated, Abs 450 nm, three-parameter fit, n=3. How it is done:
FIG. 2: Binding curves of monoclonal antibodies (68D4 and 224B1; comparative monoclonal antibodies mAbA and 5C6 & negative control 53C3) towards Siglec-9 as analysed by ELISA. Binding of the monoclonal antibody to Siglec-9, as determined by measurement of the accumulated coloured product at 450 nm after stopping the reaction, is plotted against the concentration of the monoclonal antibody under evaluation.
Antibody binding affinity towards Siglec-9 was measured by a dilution series of the analysed antibodies on a fixed concentration of Siglec-9 protein in ELISA. To this end, Siglec-9 was coated at 1 μg/ml in 50 mM carbonate-bicarbonate buffer pH 9.6 for 15-20 hours at 4° C. Antigen solution was washed away (Tecan Hydrospeed) and plates were blocked with 5% skimmed milk in phosphate-buffered saline (PBS) for 1 hour at room temperature. Plates were washed and antibodies were added at concentrations of 0-420 nM. After incubation at room temperature for 1 hour plates were washed once more. Bound antibodies were detected by addition of horseradish peroxidase (HRP)-coupled secondary antibodies. Rabbit antibodies were detected by polyclonal anti-rabbit IgG antibody (Biolegend), mAbA by anti-human Fab fragment (Sigma Aldrich). After a last washing step, plates were developed by the addition of 3,3′,5,5′-Tetramethylbenzidine (TMB; Sigma Aldrich). Reaction was stopped by addition of sulfuric acid. Absorbance was detected at 450 nm (Tecan, CM […] MONO 200). Data were fitted and EC50 values were determined by three-parameter analysis in GraphPad Prism (GraphPad Software)

Siglec-9 protein (construct not stated; antigen of Examples 3 and 4), sequence (Q9Y336 18-348 limits assumed): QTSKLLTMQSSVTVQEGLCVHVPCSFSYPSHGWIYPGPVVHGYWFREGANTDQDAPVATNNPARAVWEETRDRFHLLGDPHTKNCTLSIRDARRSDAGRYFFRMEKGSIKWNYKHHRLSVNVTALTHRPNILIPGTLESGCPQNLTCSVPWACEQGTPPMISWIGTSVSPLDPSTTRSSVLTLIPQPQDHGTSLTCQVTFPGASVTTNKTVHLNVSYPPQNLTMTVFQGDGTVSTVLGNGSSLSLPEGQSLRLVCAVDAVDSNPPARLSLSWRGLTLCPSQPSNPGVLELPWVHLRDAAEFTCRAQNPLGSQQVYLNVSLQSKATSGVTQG
extra-cellular domain of Siglec-9 fused to a C-terminal his-tag, sequence (Q9Y336 18-348 limits assumed): as above

B1: comparative monoclonal antibody mAbA (WO 2017/153433), mouse-human chimera (antibody, human IgG1, kappa, V domains shown)
VH: QVQLQQPGAELVKPGSPVKLSCKASYFTFTSYWMHWVRQRPGQGLEWIGEINPSNGHTNYNEKFESKATLTVDRSSSTAYMQLSSLTSEDSAVFYCANGVESYDFDDALDYWGQGTSVTVSS
VL: DIQMTQTTSSLSASLGDRVTISCRASQDINNYLNWYQQKPDGTIKLLIYYTSRLHSGVPSRFSGSGSGTDYSLTINNLEQEDIATYFCQQGNTLPFTFGGGTKLEIKR
As for B1, in assay [1], the “EC50 (read off the curve)” value is roughly 60 pM. The binding result in assay [2] and in assay [3] was “no binding (tested: 5 µg/ml)” throughout.

B2: monoclonal antibody 224B1 (rabbit) (antibody, V domains shown)
VH: QSVEESGGRLVTPETPLTLTCTASGFSLSSYYMSWVRQAPGKGLEWIGYIWTDGSAHYATWTKGRFTISKTSSTTVDLKITSPTTEDTATYFCVRANSGSHTYIEKFNLWGPGTLVTVSS
VL: DVVMTQTPASVEATVGGSVTIKCQASPSINDELSWYQQKPGQRPTLLIYEASALESGVPSRFKGSGSGTEFTLTIGDLECADAATYYCQCTYGSRSDISYGNTFGGGTEVVVKG
Turning to B2, the “fold stronger binding than 5C6” value in assay [4] is roughly 10 fold. Moreover, the EC50 in assay [5] was determined as 100 pM.
